Experimental data published in the supplement of paper PMC9112550, “Optimization of the antimicrobial peptide Bac7 by deep mutational scanning” (BMC Biology, 2022).

System: Escherichia coli TOP10
Assay: shrunken log2 fold change of peptide-encoding DNA abundance (4.5 h post-induction vs induction); higher = less antimicrobial activity (less host growth inhibition)
Settings: time post-induction: 4.5 h; library: site-saturation at positions 5, 18, 19, 20
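Note: peptides expressed intracellularly from a pBAD plasmid library in pooled LB shake-flask culture, induced with 0.3% L-arabinose, DNA abundance read by NGS, three biological replicates, DESeq2 with apeglm shrinkage.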

Sequence | shrunken log2 fold change
RRIRIRPPRLPRPRPRPDCPPRP | 0.132
RRIRGRPPRLPRPRPRPYSTPRP | 0.037
RRIRCRPPRLPRPRPRPRGRPRP | 0.46
RRIRWRPPRLPRPRPRPNELPRP | 0.073
RRIRHRPPRLPRPRPRPHLWPRP | -0.0776
RRIRNRPPRLPRPRPRPEHLPRP | 0.0408
RRIRGRPPRLPRPRPRPCVNPRP | 0.0252
RRIRLRPPRLPRPRPRPQNAPRP | 0.223
RRIRKRPPRLPRPRPRPRLNPRP | 0.489
RRIRPRPPRLPRPRPRPKYKPRP | -0.39
RRIRFRPPRLPRPRPRPPMYPRP | -0.395
RRIRRRPPRLPRPRPRPFDNPRP | -0.241
RRIRERPPRLPRPRPRPLSDPRP | -0.0828
RRIRERPPRLPRPRPRPSHNPRP | -0.903
RRIRYRPPRLPRPRPRPKRVPRP | 0.0354
RRIRMRPPRLPRPRPRPHSPPRP | -0.114
RRIRTRPPRLPRPRPRPTDCPRP | 0.0577
RRIRDRPPRLPRPRPRPNSIPRP | -0.211
RRIRRRPPRLPRPRPRPHDRPRP | 0.103
RRIRCRPPRLPRPRPRPMQMPRP | 0.0279
RRIRDRPPRLPRPRPRPCEEPRP | -0.187
RRIRARPPRLPRPRPRPRMCPRP | 0.339
RRIRYRPPRLPRPRPRPCEAPRP | -0.123

Sequence | shrunken log2 fold change
RRIRIRPPRLPRPRPRPRYVPRP | -0.45
RRIRPRPPRLPRPRPRPFFHPRP | -0.229
RRIRHRPPRLPRPRPRPMYFPRP | -0.00207
RRIRSRPPRLPRPRPRPRNGPRP | 0.308
RRIRTRPPRLPRPRPRPIFWPRP | 0.85
RRIRQRPPRLPRPRPRPIVCPRP | -0.137
RRIRARPPRLPRPRPRPVRRPRP | 0.723
RRIRYRPPRLPRPRPRPGLNPRP | -0.489
RRIRDRPPRLPRPRPRPQWGPRP | -0.0612
RRIRVRPPRLPRPRPRPWWFPRP | -0.307
RRIRHRPPRLPRPRPRPNHHPRP | -0.797
RRIRKRPPRLPRPRPRPHGSPRP | -0.0695
RRIRKRPPRLPRPRPRPSVCPRP | -0.0364
RRIRLRPPRLPRPRPRPYFLPRP | -0.798
RRIRHRPPRLPRPRPRPKEIPRP | -0.00142
RRIRLRPPRLPRPRPRPMKPPRP | -0.0332
RRIRVRPPRLPRPRPRPQSLPRP | 0.0116
RRIRARPPRLPRPRPRPEWSPRP | 0.949
RRIRLRPPRLPRPRPRPDKDPRP | 0.0388
RRIRIRPPRLPRPRPRPGLKPRP | 0.0429
RRIRLRPPRLPRPRPRPQRYPRP | -0.307
RRIRTRPPRLPRPRPRPKIGPRP | -0.0689
RRIRPRPPRLPRPRPRPTTCPRP | 0.262

Sequence | shrunken log2 fold change
RRIRERPPRLPRPRPRPYGMPRP | -0.207
RRIRNRPPRLPRPRPRPNHLPRP | -0.317
RRIRIRPPRLPRPRPRPHSPPRP | -0.161
RRIRKRPPRLPRPRPRPSRLPRP | 0.111
RRIRVRPPRLPRPRPRPWTEPRP | -0.0547
RRIRHRPPRLPRPRPRPDEIPRP | -0.137
RRIRWRPPRLPRPRPRPVCRPRP | 0.353
RRIRHRPPRLPRPRPRPFGNPRP | -0.119
RRIRVRPPRLPRPRPRPKVIPRP | -0.21
RRIRGRPPRLPRPRPRPVNQPRP | 0.35
RRIRNRPPRLPRPRPRPFSCPRP | -0.03
RRIRCRPPRLPRPRPRPQPCPRP | 0.0038
RRIRYRPPRLPRPRPRPMGHPRP | -1.16
RRIRQRPPRLPRPRPRPQNWPRP | 0.0213
RRIRERPPRLPRPRPRPVYVPRP | -1.11
RRIRNRPPRLPRPRPRPEMLPRP | 0.0345
RRIRCRPPRLPRPRPRPIIQPRP | -0.465
RRIRFRPPRLPRPRPRPAWGPRP | 0.144
RRIRSRPPRLPRPRPRPVMWPRP | 0.459
RRIRTRPPRLPRPRPRPHCDPRP | -0.0828
RRIRNRPPRLPRPRPRPSICPRP | -0.328
RRIRQRPPRLPRPRPRPCCCPRP | 0.0589
RRIRQRPPRLPRPRPRPWELPRP | 0.0585

Sequence | shrunken log2 fold change
RRIRVRPPRLPRPRPRPDWVPRP | -0.0925
RRIRIRPPRLPRPRPRPKEFPRP | -0.361
RRIRVRPPRLPRPRPRPVYQPRP | -0.243
RRIRGRPPRLPRPRPRPIDGPRP | 0.245
RRIRMRPPRLPRPRPRPFIHPRP | -0.57
RRIRGRPPRLPRPRPRPVMKPRP | 0.729
RRIRQRPPRLPRPRPRPKIRPRP | 0.00599
RRIRYRPPRLPRPRPRPNEAPRP | -0.017
RRIRERPPRLPRPRPRPLYCPRP | -0.444
RRIRRRPPRLPRPRPRPYTIPRP | -0.566
RRIRWRPPRLPRPRPRPPECPRP | -0.0729
RRIRYRPPRLPRPRPRPQGDPRP | -0.074
RRIRARPPRLPRPRPRPALPPRP | 0.309
RRIRARPPRLPRPRPRPMNFPRP | -0.0564
RRIRQRPPRLPRPRPRPHYKPRP | -1.18
RRIRIRPPRLPRPRPRPDWGPRP | -0.0242
RRIRWRPPRLPRPRPRPTAMPRP | 0.814
RRIRERPPRLPRPRPRPVELPRP | -0.0276
RRIRTRPPRLPRPRPRPVDCPRP | -0.142
RRIRSRPPRLPRPRPRPHQQPRP | -0.0386
RRIRLRPPRLPRPRPRPKFRPRP | -0.0412
RRIRPRPPRLPRPRPRPRLLPRP | 0.321
